B1: Tumor necrosis factor receptor superfamily member 1A (Homo sapiens), P19438 (parent)
chain: MGLSTVPDLLLPLVLLELLVGIYPSGVIGLVPHLGDREKRDSVCPQGKYIHPQNNSICCTKCHKGTYLYNDCPGPGQDTDCRECESGSFTASENHLRHCLSCSKCRKEMGQVEISSCTVDRDTVCGCRKNQYRHYWSENLFQCFNCSLCLNGTVHLSCQEKQNTVCTCHAGFFLRENECVSCSNCKKSLECTKLCLPQIENVKGTEDSGTTVLLPLVIFFGLCLLSLLFIGLMYRYQRWKSKLYSIVCGKSTPEKEGELEGTTTKPLAPNPSFSPTPGFTPTLGFSPVPSSTFTSSSTYTPGDCPNFAAPRREVAPPYQGADPILATALASDPIPNPLQKWEDSAHKPQSLDTDDPATLYAVVENVPPLRWKEFVRRLGLSDHEIDRLELQNGRCLREAQYSMLATWRRRTPRREATLELLGRVLRDMDLLGCLEDIEEALCGPAALPPAPSLLR
partner: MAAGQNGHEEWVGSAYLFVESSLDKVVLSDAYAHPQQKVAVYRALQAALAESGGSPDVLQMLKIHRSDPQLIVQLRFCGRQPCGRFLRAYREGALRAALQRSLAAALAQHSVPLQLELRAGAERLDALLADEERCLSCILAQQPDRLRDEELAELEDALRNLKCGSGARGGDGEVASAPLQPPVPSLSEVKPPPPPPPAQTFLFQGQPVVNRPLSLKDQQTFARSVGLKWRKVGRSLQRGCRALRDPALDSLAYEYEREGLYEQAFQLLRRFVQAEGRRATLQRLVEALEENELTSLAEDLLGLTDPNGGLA

Variants of: B1
Conditions: with tradd_human TRADD

| effect of a mutation on the interaction | Variant |
| --- | --- |
| decreasing interaction | K372A;F374A;R376A |
